The values that follow come from patent US20200332009A1 (Innovent, published 2020).

Numbering of substitutions follows the chain as printed. Names and notes keep the numbering of the source. Where two headings read alike, the source gives them in different places.

For assay [1], the target named is T1, human PD-L1 (purchased from Acrobiosystems) (human, UniProt Q9NZQ7 19-238).
T1 construct: also called hPD-L1
Nature of the assay: biological optical interferometry (ForteBio), antibody on sensor, antigen in solution. As to the method:
The equilibrium dissociation constant (KD) for binding of the antibody of the invention to human PD-L1 was determined by biological optical interferometry (ForteBio). A ForteBio affinity assay of prior art was performed (Estep, P., et al, High throughput solution based measurement of antibody-antigen affinity and epitope binning. MAbs, 2013.5(2):270-8).
(§1) SD buffer, antibodies, and antigens (including human PD-L1, mouse PD-L1 and Macaca fascicularis PD-L1, all purchased from Acrobiosystems) each of 100 μL were added to 96-well black polystyrene half area microplates (Greiner, 675076). The sensors were arranged according to the positions of the samples. The instrument settings were as follows: the operation procedures were Baseline, Loading ˜1 nm, Baseline, Association, and Dissociation. The run time of each procedure was dependent on the rates of association and dissociation. The rotation speed was 400 rpm, and the temperature was 30° C. The KD values were analyzed by ForteBio analysis software.

Assay [2] addresses T2, human PD-L1 overexpressed on CHO cells (CHO-PDL1) (human, UniProt Q9NZQ7 19-290).
T2 construct: whole, on cells; also called CHO cells overexpressing human PD-L1
The assay is described as follows: flow cytometry (FACS) on CHO-PDL1 cells.

The target in assay [3] is T2, human PD-L1 overexpressed on CHO cells …. The assay is described as follows: flow cytometry (FACS) on CHO-PDL1 cells; the table gives no unit, the axis is Con(nM); the text gives this value to 4-26.6. How it is done:
(§2) CHO-PDL1 cells were counted, diluted to 1×10⁶ cells/mL, and added to each well of a U-shaped bottom 96-well plates at 100 μL/well. The suspension was centrifuged at 400 g for 5 min, and the supernatant was discarded. […] The cells were resuspended to a volume of 100 μL/well, and then left on ice for 30 min. The suspension was centrifuged at 400 g for 5 min, and the supernatant was discarded. The cells were washed once with PBS. The mixture was centrifuged at 400 g for 5 min, and the supernatant was discarded. 100 μL of FITC-labeled secondary antibody for anti-mouse-Fab (Jackson Immuno Research) (diluted in PBS in 1:500) was added per well, and 100 μL of FITC-labeled secondary antibody for anti-human-Fab (Jackson Immuno Research) was added to the cells to which the positive control antibody was added. The cells were incubated for 30 min on ice in the dark. The cells were centrifuged at 400 g for 5 min with the supernatant being discarded, and were washed once with a PBS. The cells were resuspended with 100 μL of 1×PBS, and detected by FACS.

Assay [4] concerns the target PD-L1 on CHOK1-PDL1 cells (Promega PD-1/PD-L1 Blockade Bioassay) (UniProt Q9NZQ7 19-290, limits assumed). The assay is described as follows: cell-based or functional assay.
Assay [5] has as its target T1, human PD-L1 (purchased from …). The assay is described as follows: biological optical interferometry (ForteBio), antibody on sensor, antigen in solution. As to the method:
as §1
The equilibrium dissociation constant (KD) binding of the humanized antibodies of different Fc subtypes of the invention to human PD-L1 was determined by ForteBio. The ForteBio affinity assay was shown in Example 2.
This is another data set of the same source.

Assay [6] deals with T2, human PD-L1 overexpressed on CHO cells …. The assay is described as follows: flow cytometry (FACS) on CHO-PDL1 cells; the table gives no unit, the axis is Con(nM); the text gives this value to 4-79.2. How it is done: as §2
For assay [7], the target named is T3, human LAG-3-His (human, UniProt P18627 23-450).
T3 construct: also called hLAG-3; human LAG-3 antigen (ArcoBiosystems); not shown: His tag
T3 sequence (looked up): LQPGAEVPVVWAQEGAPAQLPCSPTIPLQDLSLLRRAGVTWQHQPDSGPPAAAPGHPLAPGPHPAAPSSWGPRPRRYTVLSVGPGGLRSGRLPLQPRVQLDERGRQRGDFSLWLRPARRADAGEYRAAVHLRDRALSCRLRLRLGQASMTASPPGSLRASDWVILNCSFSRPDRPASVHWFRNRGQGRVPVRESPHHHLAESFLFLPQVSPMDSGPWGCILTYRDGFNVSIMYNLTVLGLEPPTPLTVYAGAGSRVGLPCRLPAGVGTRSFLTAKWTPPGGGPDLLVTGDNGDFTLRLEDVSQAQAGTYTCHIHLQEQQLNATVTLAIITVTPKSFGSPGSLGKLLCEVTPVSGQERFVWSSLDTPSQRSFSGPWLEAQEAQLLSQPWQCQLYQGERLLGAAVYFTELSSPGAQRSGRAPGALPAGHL
Nature of the assay: biological optical interferometry (ForteBio), antibody on AHQ tip, human LAG-3-His 100 nM in solution, univalent, 1:1 model. How it is done:
The equilibrium dissociation constant (KD) for binding of ADI31853 to human LAG-3 (hLAG-3) was measured by biological optical interferometry (ForteBio). A ForteBio affinity assay of prior art was performed (Estep, P., et al, High throughput solution based measurement of antibody-antigen affinity and epitope binning. MAbs, 2013.5(2):270-8). Briefly, the sensor was equilibrated offline in assay buffer for 30 minutes, and on-line detection was then conducted for 60 seconds to establish a baseline. The purified antibody obtained as described above was loaded on-line onto an AHQ sensor (ForteBio) for ForteBio affinity assay. The sensor with the loaded antibody was then exposed to 100 nM of a human LAG-3 antigen (ArcoBiosystems) for 5 minutes before transferring the sensor to the assay buffer for dissociation for 5 minutes for dissociation rate measurement. Kinetic analysis was performed using a 1:1 binding model.

T2 sequence (Q9NZQ7 19-290): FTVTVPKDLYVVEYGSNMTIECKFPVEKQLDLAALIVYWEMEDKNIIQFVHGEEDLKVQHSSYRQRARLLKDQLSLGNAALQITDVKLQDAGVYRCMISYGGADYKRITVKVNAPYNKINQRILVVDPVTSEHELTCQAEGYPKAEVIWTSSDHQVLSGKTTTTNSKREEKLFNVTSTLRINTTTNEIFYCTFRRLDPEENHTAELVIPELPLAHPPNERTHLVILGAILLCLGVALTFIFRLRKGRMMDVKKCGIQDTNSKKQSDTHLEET
Chain of PD-L1 on CHOK1-PDL1 cells (Promega PD-1/PD-L1 Blockade Bioassay) (Q9NZQ7 19-290 limits assumed): as the sequence (Q9NZQ7 19-290) above
T1 sequence (Q9NZQ7 19-238 limits assumed): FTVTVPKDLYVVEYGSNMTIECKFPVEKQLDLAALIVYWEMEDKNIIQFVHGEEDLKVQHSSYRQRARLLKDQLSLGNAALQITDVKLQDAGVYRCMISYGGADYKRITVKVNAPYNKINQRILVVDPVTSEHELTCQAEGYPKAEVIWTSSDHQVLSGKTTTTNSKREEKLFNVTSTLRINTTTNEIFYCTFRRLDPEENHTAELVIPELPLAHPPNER

B1: 4-79.2 (antibody, human IgG1, kappa, N297A, V domains shown)
VH: EVQLQQSGPSLVKPSQTLSLTCSVTGDSITSGYWNWIREFPGNKLEYLGYISYTGSTYYNPSLKSRISITRDTSKNQYSLQLNSVTTEDTATYYCAKAPRWLSAMDYWGQGTSVTVSS
VL: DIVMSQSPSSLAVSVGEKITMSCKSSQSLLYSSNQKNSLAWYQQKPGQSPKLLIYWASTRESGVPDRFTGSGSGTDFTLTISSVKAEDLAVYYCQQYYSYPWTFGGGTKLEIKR
notes: Same remark on anti-mouse detection reagents as for 3-266.1; also called chimeric antibody 4-79.2
Turning to B1, in assay [1], the affinity, expressed as Kd, was 7.56 nM. Moreover, the results for the EC50 in assay [2] and in assay [3] were 2.6 nM and 1.99 nM, respectively.

B2: 3-266.1 (antibody, human IgG1, kappa, N297A, V domains shown)
VH: EVQLQQSVAELVKPGASVKLSCTASGFNIEDTYIHWVKQRPEQGLEWIGRIDPANDDTKYDPKFQGKATITADTSSNTAYLQLSSLTPEDTAVYYCGRGLGRWFAYWGQGTLVTVSA
VL: SIVMTQSHKFMSTSIGDRVNISCKASQDVINAVAWCQQKPGQSPKLLIYSASNRYTGVPDRFTGSGSGTDFTFTISSVQAEDLAVYYCQQHYSPPLTFGGGTKLELKR
notes: also called chimeric antibody 3-266.1
Regarding B2, binding in assay [1] was put at a Kd of 0.98 nM. The molecule also registered an EC50 in assay [2] of 2.14 nM.

B3: HZ4485-IgG1N297A (antibody, V domains shown)
VH: QVQLVQSGAEVAKPGASVKVSCKASGYTFTTYTMHWVRQRPGQGLEWIGNINPNSDYAIYAQKFQGRATMTADKSTNTAYMELSSLRSEDSAVYYCAKQSFDYWGQGTLVTVSS
VL: DIVLTQSPASLAVSPGQRATITCRASESVEFYGTSLLQWYQQKPGQPPKLLIYAASNVESGVPARFSGSGSGTDFTLTINPVEADDTANYYCHQGRKVPYTFGQGTKLEIKR
notes: Humanized form of 4-48.5, human IgG1 with N297A, kappa
B3 had a concentration for a half-maximal effect (EC50) in assay [2] of 1.56 nM. The “EC50 of the NFAT luciferase reporter signal (blockade of PD-1 on Jurkat-PD1 cells binding PD-L1 on CHOK1-PDL1 cells)” value in assay [4] stood at 0.683 nM. Besides, the Kd in assay [5] was 3.17 nM.

B4: 4-48.5 (antibody, human IgG1, kappa, N297A, V domains shown)
VH: EVQLQQSGAELARPGASVKMSCKASGYTFTTYTMHWVKQRPGQGLEWIGNINPNSDYAIYNQKFKDKATLTADKSSNTAYMQLSGLTSEDSAVYYCAKQSFDYWGQGTTLTVSS
VL: B3 VL with P15L, T22S, T76S, T78N, N80H, A84V, T87V, N89L, Y91F, Q104G
notes: Same remark on anti-mouse detection reagents as for 3-266.1; also called chimeric antibody 4-48.5
Regarding B4, in assay [1], the Kd was determined as 1.23 nM. Moreover, the EC50 in assay [2] was determined as 2 nM.

B5: HZ3266-IgG1N297A (antibody)
heavy: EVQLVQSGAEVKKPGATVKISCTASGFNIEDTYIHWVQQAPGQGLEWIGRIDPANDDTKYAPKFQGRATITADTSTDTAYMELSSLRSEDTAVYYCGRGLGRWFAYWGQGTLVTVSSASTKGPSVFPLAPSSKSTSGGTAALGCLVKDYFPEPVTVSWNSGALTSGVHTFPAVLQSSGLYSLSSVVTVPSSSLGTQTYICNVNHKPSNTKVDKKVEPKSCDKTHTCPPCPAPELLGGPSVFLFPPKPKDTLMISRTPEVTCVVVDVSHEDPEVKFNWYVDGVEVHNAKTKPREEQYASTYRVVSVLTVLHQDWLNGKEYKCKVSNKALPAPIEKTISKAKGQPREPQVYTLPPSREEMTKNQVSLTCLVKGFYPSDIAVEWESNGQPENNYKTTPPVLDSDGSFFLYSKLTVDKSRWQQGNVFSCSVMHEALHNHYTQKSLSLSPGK
light: GIVMTQSPDSLAVSLGERATINCKASQDVINAVAWYQQKPGQSPKLLIYSASNRYTGVPDRFSGSGSGTDFTLTISSLQAEDLAVYYCQQHYSPPLTFGGGTKVEIKRTVAAPSVFIFPPSDEQLKSGTASVVCLLNNFYPREAKVQWKVDNALQSGNSQESVTEQDSKDSTYSLSSTLTLSKADYEKHKVYACEVTHQGLSSPVTKSFNRGEC
notes: Humanized form of 3-266.1, human IgG1 with N297A, kappa
In the case of B5, a half-maximal response in assay [2] (EC50) required 1.78 nM. For the same molecule, the “EC50 of the NFAT luciferase reporter signal (blockade of PD-1 on Jurkat-PD1 cells binding PD-L1 on CHOK1-PDL1 cells)” value in assay [4] was found to be 0.967 nM. For the same molecule, the Kd in assay [5] worked out at 0.724 nM.

B6: HZ3266-IgG4PAAK (antibody)
heavy: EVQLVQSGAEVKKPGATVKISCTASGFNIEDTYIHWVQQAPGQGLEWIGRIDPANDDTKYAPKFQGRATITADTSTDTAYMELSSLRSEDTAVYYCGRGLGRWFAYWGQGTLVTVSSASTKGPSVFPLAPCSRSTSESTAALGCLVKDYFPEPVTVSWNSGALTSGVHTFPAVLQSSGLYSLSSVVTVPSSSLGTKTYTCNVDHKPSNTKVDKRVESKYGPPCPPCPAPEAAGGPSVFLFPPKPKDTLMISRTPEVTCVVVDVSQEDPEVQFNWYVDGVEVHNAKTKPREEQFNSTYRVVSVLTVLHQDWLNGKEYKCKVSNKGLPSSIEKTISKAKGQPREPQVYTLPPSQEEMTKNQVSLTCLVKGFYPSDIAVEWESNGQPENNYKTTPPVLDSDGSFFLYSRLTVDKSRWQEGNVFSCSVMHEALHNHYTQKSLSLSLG
light: B5 light
notes: Humanized form of 3-266.1, mutated human IgG4 constant region, kappa; also called HZ3266-G4PAAK; HZ3266-IgG4PAK
Regarding B6, the EC50 in assay [2] is 1.86 nM. The molecule further displayed a Kd in assay [5] of 1.32 nM.

B7: HZ3266-IgG1 (antibody)
heavy: not shown
light: B5 light
notes: Humanized form of 3-266.1, human IgG1, kappa
Consider B7, for which the EC50 in assay [2] was 1.81 nM. Also, the “EC50 of the NFAT luciferase reporter signal (blockade of PD-1 on Jurkat-PD1 cells binding PD-L1 on CHOK1-PDL1 cells)” value in assay [4] turned out to be 0.623 nM. Besides, binding in assay [5] was put at a Kd of 0.935 nM.

B8: 4-26.6 (antibody, human IgG1, kappa, N297A, V domains shown)
VH: QVQLKESGPSLVKPSQTLSLTCSVTGDSITSGYWNWIRKFPGNKLEYMGYISYSGSTYHNPSLKSRISITRDTSKNQFYLQLNSVTKEDTATYYCARGDLWPPWFAYWGQGTLVTVSA
VL: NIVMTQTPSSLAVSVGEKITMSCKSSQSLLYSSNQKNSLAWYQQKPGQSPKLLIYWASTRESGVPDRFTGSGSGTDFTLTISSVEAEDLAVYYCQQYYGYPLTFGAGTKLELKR
notes: Same remark on anti-mouse detection reagents as for 3-266.1; also called chimeric antibody 4-26.6
Regarding B8, binding in assay [1] was characterised by a dissociation constant (Kd) of 3.85 nM. For the same molecule, the EC50 turned out to be 1.99 nM in assay [2] and 2.6 nM in assay [6].

B9: ADI-31853 (antibody, human IgG4 S228P, kappa, F234A L235A, V domains shown)
VH: QLQLQESGPGLVKPSETLSLTCTVSGGSIYSESYYWGWIRQPPGKGLEWIGSIVYSGYTYYNPSLKSRVTISVDTSKNQFSLKLSSVTAADTAVYYCARVRTWDAAFDIWGQGTMVTVSS
VL: DIQMTQSPSSLSASVGDRVTITCQASQDISNYLNWYQQKPGKAPKLLIYDASNLETGVPSRFSGSGSGTDFTFTISSLQPEDIATYYCQQVLELPPWTFGGGTKVEIKR
notes: also called anti-human-LAG-3 antibody
As to B9, in assay [7], the Kd stood at 0.622 nM, the koff amounted to 0.0002 s⁻¹ and the kon amounted to 322000 M⁻¹ s⁻¹.
